According to patent publication US6391305B1, “Conjugates useful in the treatment of prostate cancer” (priority 1999, dated 2002):
“And” between values parts separate entries of the source, which are not always exact repeats. Identical values can stand only once. Like-named read-outs stand apart in the source and are kept apart here. Marks after values point to notes of the source that are not given here. Non-standard residues stand in square brackets, D forms with d. Residues, ends and D or L forms follow the SMILES beside them. *: point of attachment. X5 = (2R,3S)‑2,3,4‑trihydroxybutanoyl, O=C([C@H](O)[C@@H](O)CO)*; Glyceroyl(2S) = O=C([C@@H](O)CO)*; hArg = N=C(N)NCCCC[C@H](N)C(=O)O; 3Pal = N[C@@H](Cc1cccnc1)C(=O)O; Cha = N[C@@H](CC1CCCCC1)C(=O)O; Chg = N[C@H](C(=O)O)C1CCCCC1; Nle = CCCC[C@H](N)C(=O)O; Glycolyl = O=C(CO)*

Biological target: T1, enzymatically active free PSA (Homo sapiens, UniProt P07288)
T1 construct: required for 50% cleavage of the noted oligopeptides with enzymatically active free PSA
Format: biochemical
Details: for Time to 50% Substrate Cleavage by York PSA (Min), values marked *: asterisk not explained in Table 2
Description: All other oligopeptides were tested as neutral compounds.

[1] = oligopeptide, PSA digestion buffer pH8.0, molar ratio to PSA 100 to 1

T1 sequence (P07288 25-261): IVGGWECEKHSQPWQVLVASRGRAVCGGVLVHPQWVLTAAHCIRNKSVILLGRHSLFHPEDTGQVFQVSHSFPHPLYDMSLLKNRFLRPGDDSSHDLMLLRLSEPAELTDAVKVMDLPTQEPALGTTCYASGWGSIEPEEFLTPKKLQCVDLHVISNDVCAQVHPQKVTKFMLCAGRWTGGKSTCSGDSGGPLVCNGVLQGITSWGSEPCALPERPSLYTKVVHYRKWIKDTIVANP

“2(S)2,3-dihydroxypropionyl-hRSSChgQ-SL-acid: blocked oligopeptide with PSA cleavage site, Example 1 ({2(S)‑2,3‑dihydroxypropionyl}-[hArg]SS[Chg]QSL-OH)” was tested. Which “Time to 50% Substrate Cleavage by York PSA (Min), values marked *” value (oligopeptide) did it give?
The value was 25* Min.

“2(S)-2,3-dihydroxy-propionyl ShRChgQSL-acid: blocked oligopeptide with PSA cleavage site, Example 1 ({2(S)‑2,3‑dihydroxypropionyl}-S[hArg][Chg]QSL-OH)” was tested. Which “Time to 50% Substrate Cleavage by York PSA (Min), values marked *” value (oligopeptide) did it give?
The value was 35* Min.

With “2,3-dihydroxypropionyl-GSSChgQ-SL-acid: blocked oligopeptide with PSA cleavage site, Example 1 ({2,3‑dihydroxypropionyl}-GSS[Chg]QSL-OH)” as the molecule, how does the “Time to 50% Substrate Cleavage by York PSA” value [1] read?
Its value is 160 min.

How did the “Time to 50% Substrate Cleavage by York PSA” value [1] turn out when “2,3-dihydroxypropionyl-SSSChgQ-SL-acid: blocked oligopeptide with PSA cleavage site, Example 1 ({2,3‑dihydroxypropionyl}-SSS[Chg]QSL-OH)” was run?
Its value is 120 min.

For “2,3-dihydroxypropionyl-ShRChgQ-SL-acid: blocked oligopeptide with PSA cleavage site, Example 1 ({2,3‑dihydroxypropionyl}-S[hArg][Chg]QSL-OH)”, which “Time to 50% Substrate Cleavage by York PSA” value [1] is on record?
The value was 75 min.

“2,3-dihydroxypropionyl-ShRYQ-SL-acid: blocked oligopeptide with PSA cleavage site, Example 1 ({2,3‑dihydroxypropionyl}-S[hArg]YQSL-OH)” was tested. Which “Time to 50% Substrate Cleavage by York PSA” value [1] did it give?
Its value is 35 min and 50 min.

How did the “Time to 50% Substrate Cleavage by York PSA” value [1] turn out when “2,3-dihydroxypropionyl-hRSSChgQ-SL-acid: blocked oligopeptide with PSA cleavage site, Example 1” was run?
The value was 50 min.

“2,3-dihydroxypropionyl-hSSSChgQ-SL-acid: blocked oligopeptide with PSA cleavage site, Example 1 ({2,3‑dihydroxypropionyl}-[hS]SS[Chg]QSL-OH)” was tested. Which “Time to 50% Substrate Cleavage by York PSA” value [1] did it give?
Its value is 160 min.

Which “Time to 50% Substrate Cleavage by York PSA” value [1] does the source give for “2-hydroxyacetyl-SSChgQ-SL-acid: blocked oligopeptide with PSA cleavage site, Example 1 (Glycolyl-SS[Chg]QSL-OH)” here?
Its value is 180 min.

What does the source list for “2-hydroxyacetyl-ShRChgQ-SL-acid: blocked oligopeptide with PSA cleavage site, Example 1 (Glycolyl-S[hArg][Chg]QSL-OH)”?
Time to 50% Substrate Cleavage by York PSA [1]: 120 min; Time to 50% Substrate Cleavage by York PSA (Min), values marked * (oligopeptide): 30 min

With “2-hydroxyacetyl-hRASChgQ-SL-acid: blocked oligopeptide with PSA cleavage site, Example 1 (Glycolyl-[hArg]AS[Chg]QSL-OH; SMILES CC(C)C[C@H](NC(=O)[C@H](CO)NC(=O)[C@H](CCC(N)=O)NC(=O)[C@@H](NC(=O)[C@H](CO)NC(=O)[C@H](C)NC(=O)[C@H](CCCCNC(=N)N)NC(=O)CO)C1CCCCC1)C(=O)O)” as the molecule, how does the “Time to 50% Substrate Cleavage by York PSA” value [1] read?
Its value is 70 min.

Which “Time to 50% Substrate Cleavage by York PSA” value [1] does the source give for “2-hydroxyacetyl-hRSSYQ-SNle-acid: blocked oligopeptide with PSA cleavage site, Example 1 (Glycolyl-[hArg]SSYQS[Nle]-OH)” here?
The value was 45 min.

For “2-hydroxyacetylhRYQ-SL-acid: blocked oligopeptide with PSA cleavage site, Example 1 (Glycolyl-[hArg]YQSL-OH; SMILES CC(C)C[C@H](NC(=O)[C@H](CO)NC(=O)[C@H](CCC(N)=O)NC(=O)[C@H](Cc1ccc(O)cc1)NC(=O)[C@H](CCCCNC(=N)N)NC(=O)CO)C(=O)O)”, which “Time to 50% Substrate Cleavage by York PSA (Min), values marked *” value (oligopeptide) is on record?
Its value is 105* Min.

Which “Time to 50% Substrate Cleavage by York PSA” value (psa digestion buffer, pH 8) does the source give for CC(C)C[C@H](NC(=O)[C@H](CO)NC(=O)[C@H](CCC(N)=O)NC(=O)[C@H](Cc1ccc(O)cc1)NC(=O)[C@H](CO)NC(=O)[C@H](CO)NC(=O)[C@H](CCCCNC(=N)N)NC(=O)CO)C(=O)O [2-hydroxyacetyl-hRSSYQ-SL-acid] (Glycolyl-[hArg]SSYQSL-OH) here?
Its value is 35 min.

Which “Time to 50% Substrate Cleavage by York PSA” value (psa digestion buffer, pH 8) does the source give for CCCC[C@H](NC(=O)[C@H](CO)NC(=O)[C@H](CCC(N)=O)NC(=O)[C@H](Cc1ccc(O)cc1)NC(=O)[C@H](CCCCNC(=N)N)NC(=O)[C@H](CO)NC(C)=O)C(=O)O [Ac-ShRYQ-SNle-acid] (Ac-S[hArg]YQS[Nle]-OH) here?
Its value is 25 min.

CCCC[C@H](NC(=O)[C@H](CO)NC(=O)[C@H](CCC(N)=O)NC(=O)[C@H](CC1CCCCC1)NC(=O)[C@H](CCCCNC(=N)N)NC(C)=O)C(=O)O [Ac-hR(CHA)Q-SNle-acid] (Ac-[hArg][Cha]QS[Nle]-OH) was tested. Which “Time to 50% Substrate Cleavage by York PSA” value (psa digestion buffer, pH 8) did it give?
Its value is 200 min.

For CCCC[C@H](NC(=O)[C@H](CO)NC(=O)[C@H](CCC(N)=O)NC(=O)[C@H](Cc1ccc(O)cc1)NC(=O)[C@H](CO)NC(=O)[C@H](CO)NC(=O)[C@H](CCCCNC(=N)N)NC(C)=O)C(=O)O [Ac-hRSSYQ-SNle-acid] (Ac-[hArg]SSYQS[Nle]-OH), which “Time to 50% Substrate Cleavage by York PSA” value (psa digestion buffer, pH 8) is on record?
Its value is 25 min.

With “(2R,3S) 2,3,4-trihydroxybutanoyl-ShRChgQ-SL-acid: blocked oligopeptide with PSA cleavage site, Example 1 (X5-S[hArg][Chg]QSL-OH)” as the molecule, how does the “Time to 50% Substrate Cleavage by York PSA” value [1] read?
The value was 90 min.

“(OH-Ac)SSSChgQ-SL-acid: 2-hydroxyacetyl blocked oligopeptide with PSA cleavage site, Example 1; blocked peptide of Example 3 Step B (Glycolyl-SSS[Chg]QSL-OH)” was tested. Which “Time to 50% Substrate Cleavage by York PSA” value [1] did it give?
Its value is 120 min.

For “(d)2,3-dihydroxypropionyl-3PAL-SSChgQSL-acid: blocked oligopeptide with PSA cleavage site, Example 1 ({(d)‑2,3‑dihydroxypropionyl}-[3Pal]SS[Chg]QSL-OH)”, which “Time to 50% Substrate Cleavage by York PSA” value [1] is on record?
The value was 80 min.

How did the “Time to 50% Substrate Cleavage by York PSA” value [1] turn out when “(l)2,3-dihydroxypropionyl-3PAL-SSChgQ-SL-acid: blocked oligopeptide with PSA cleavage site, Example 1 ({Glyceroyl(2S)}-[3Pal]SS[Chg]QSL-OH; SMILES CC(C)C[C@H](NC(=O)[C@H](CO)NC(=O)[C@H](CCC(N)=O)NC(=O)[C@@H](NC(=O)[C@H](CO)NC(=O)[C@H](CO)NC(=O)[C@H](Cc1cccnc1)NC(=O)[C@@H](O)CO)C1CCCCC1)C(=O)O)” was run?
The value was 70 min.

Which “Time to 50% Substrate Cleavage by York PSA” value [1] does the source give for “(l)2,3-dihydroxypropionyl-SSChgQ-SL-acid: blocked oligopeptide with PSA cleavage site, Example 1 ({Glyceroyl(2S)}-SS[Chg]QSL-OH)” here?
Its value is 180 min.

Which “Time to 50% Substrate Cleavage by York PSA” value [1] does the source give for “(l)2,3-dihydroxypropionyl-SSSChgQ-SL-acid: blocked oligopeptide with PSA cleavage site, Example 1 ({Glyceroyl(2S)}-SSS[Chg]QSL-OH)” here?
The value was 80 min and 110 min.

Which “Time to 50% Substrate Cleavage by York PSA” value [1] does the source give for “Ac-ANKASYQ-SL-acid: blocked oligopeptide with PSA cleavage site, Example 1 (chain 1 Ac-ANKASYQSL-OH; chain 2 Ac-ANKASYQSL-OH)” here?
Its value is 135 min and 220 min.

With “Ac-hRASChgQ-SL-acid: blocked oligopeptide with PSA cleavage site, Example 1 (Ac-[hArg]AS[Chg]QSL-OH; SMILES CC(=O)N[C@@H](CCCCNC(=N)N)C(=O)N[C@@H](C)C(=O)N[C@@H](CO)C(=O)N[C@H](C(=O)N[C@@H](CCC(N)=O)C(=O)N[C@@H](CO)C(=O)N[C@@H](CC(C)C)C(=O)O)C1CCCCC1)” as the molecule, how does the “Time to 50% Substrate Cleavage by York PSA” value [1] read?
The value was 50 min.
